One block for each binder: values may come before it. Square brackets hold non-standard residues; d marks the D form. Ends that are not written are not given here. pT = C[C@@H](OP(=O)(O)O)[C@H](N)C(=O)O; pS = N[C@@H](COP(=O)(O)O)C(=O)O
What was measured:
[1] = biological target: T1, APLF FHA domain (residues 1-106) (UniProt Q8IW19 1-106); assay: ITC; peptide injected (30 x 10 ul) into FHA domain in the cell; 22 °C; 50 mM HEPES pH 7.5, 150 mM NaCl, 5 mM β-mercaptoethanol; XRCC1 peptides 1 mM into 100 μM protein, XRCC4 peptides 300 μM into 30 μM protein; single-site binding model; conditions: both partners purified
T1 construct: Cloned BamHI/XhoI in pGEX-6P-1; also called aprataxin- and PNKP-like factor FHA domain; source: E. coli Rosetta2 (DE3), purified (glutathione resin, cleaved with rhinovirus 3C protease, Superdex 75); not shown: GST, N-terminal, cleaved
T1 sequence (looked up): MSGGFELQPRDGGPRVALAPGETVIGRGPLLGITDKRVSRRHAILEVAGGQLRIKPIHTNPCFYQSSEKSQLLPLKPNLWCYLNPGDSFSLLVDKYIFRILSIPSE

[2] = biological target: T2, selenomethionine-labelled APLF FHA domain L91M (residues 1-106) (UniProt Q8IW19 1-106, L91 M, selenomethionine-labelled); assay: crystal structure; selenomethionine-labelled APLF FHA L91M with peptide at 1:3; hanging drops at 18 °C, 0.1 M Tris pH 8.0, 30% PEG 3350, 0.2 M MgCl2; SAD, refined at 1.4 Å; conditions: both partners purified
T2 construct: residues 1-104 are in the final model; also called APLF L91 M; APLF/XRCC4 SeMet; source: E. coli Rosetta2 (DE3) in SelenoMet medium, purified as the wild-type protein; not shown: GST, N-terminal, cleaved
T2 sequence (looked up): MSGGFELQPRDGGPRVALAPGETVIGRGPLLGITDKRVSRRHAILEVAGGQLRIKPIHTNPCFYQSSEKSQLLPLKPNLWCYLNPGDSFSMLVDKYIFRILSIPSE

fold tighter binding than the XRCC1 pThr519 peptide [1]: ~8 fold
B1: XRCC4 229-237 peptide phosphorylated on Thr233 (peptide)
peptide: YDESTDEES
HELM: PEPTIDE1{Y.D.E.S.[C[C@@H](OP(=O)(O)O)[C@H](N[*:1])C(=O)[*:2]].D.E.E.S.[am]}$$$$V2.0; N-terminus assumed
SMILES: C[C@@H](OP(=O)(O)O)[C@H](NC(=O)[C@H](CO)NC(=O)[C@H](CCC(=O)O)NC(=O)[C@H](CC(=O)O)NC(=O)[C@@H](N)Cc1ccc(O)cc1)C(=O)N[C@@H](CC(=O)O)C(=O)N[C@@H](CCC(=O)O)C(=O)N[C@@H](CCC(=O)O)C(=O)N[C@@H](CO)C(N)=O
notes: also called mono-phosphorylated (pT233) XRCC4; XRCC4 peptide phosphorylated solely on the threonine in the core motif; source: synthetic peptide (Dr. W. Mawby, University of Bristol), purified by HPLC

binding result [2]: binds
B4: XRCC4 229-237 peptide phosphorylated on Ser232, Thr233 and Ser237 (peptide)
peptide: YDE[pS][pT]DEE[pS]-NH2
modifications: N-terminus assumed
SMILES: C[C@@H](OP(=O)(O)O)[C@H](NC(=O)[C@H](COP(=O)(O)O)NC(=O)[C@H](CCC(=O)O)NC(=O)[C@H](CC(=O)O)NC(=O)[C@@H](N)Cc1ccc(O)cc1)C(=O)N[C@@H](CC(=O)O)C(=O)N[C@@H](CCC(=O)O)C(=O)N[C@@H](CCC(=O)O)C(=O)N[C@@H](COP(=O)(O)O)C(N)=O
notes: also called tri-phosphorylated XRCC4 peptide; triphosphorylated XRCC4; source: synthetic peptide (Dr. W. Mawby, University of Bristol), purified by HPLC

The remaining lines, values behind:

B2: XRCC1 515-529 peptide phosphorylated on Ser518 and Thr519 (peptide)
peptide: YAGSTDENTDSEEHQ
HELM: PEPTIDE1{Y.A.G.[O=C([C@H](COP(=O)(O)O)N[*:1])[*:2]].[C[C@@H](OP(=O)(O)O)[C@H](N[*:1])C(=O)[*:2]].D.E.N.T.D.S.E.E.H.Q.[am]}$$$$V2.0; N-terminus assumed
SMILES: C[C@H](NC(=O)[C@@H](N)Cc1ccc(O)cc1)C(=O)NCC(=O)N[C@@H](COP(=O)(O)O)C(=O)N[C@H](C(=O)N[C@@H](CC(=O)O)C(=O)N[C@@H](CCC(=O)O)C(=O)N[C@@H](CC(N)=O)C(=O)N[C@H](C(=O)N[C@@H](CC(=O)O)C(=O)N[C@@H](CO)C(=O)N[C@@H](CCC(=O)O)C(=O)N[C@@H](CCC(=O)O)C(=O)N[C@@H](Cc1c[nH]cn1)C(=O)N[C@@H](CCC(N)=O)C(N)=O)[C@@H](C)O)[C@@H](C)OP(=O)(O)O
notes: XRCC1 residues 515-529; also called di-phosphorylated XRCC1 peptide; source: synthetic peptide (Dr. W. Mawby, University of Bristol), purified by HPLC
fold increase in binding over the mono-phosphorylated peptide [1]: ~3 fold

B3: XRCC1 515-529 peptide phosphorylated on Ser518, Thr519, Thr523 and Ser525 (peptide)
peptide: YAG[pS][pT]DEN[pT]D[pS]EEHQ-NH2
modifications: N-terminus assumed
SMILES: C[C@H](NC(=O)[C@@H](N)Cc1ccc(O)cc1)C(=O)NCC(=O)N[C@@H](COP(=O)(O)O)C(=O)N[C@H](C(=O)N[C@@H](CC(=O)O)C(=O)N[C@@H](CCC(=O)O)C(=O)N[C@@H](CC(N)=O)C(=O)N[C@H](C(=O)N[C@@H](CC(=O)O)C(=O)N[C@@H](COP(=O)(O)O)C(=O)N[C@@H](CCC(=O)O)C(=O)N[C@@H](CCC(=O)O)C(=O)N[C@@H](Cc1c[nH]cn1)C(=O)N[C@@H](CCC(N)=O)C(N)=O)[C@@H](C)OP(=O)(O)O)[C@@H](C)OP(=O)(O)O
notes: XRCC1 residues 515-529; also called tetra-phosphorylated XRCC1 peptide; source: synthetic peptide (Dr. W. Mawby, University of Bristol), purified by HPLC
stoichiometry N [1]: ~2 APLF FHA domains per peptide

B5: XRCC1 515-529 peptide phosphorylated on Ser518, Thr519 and Thr523 (peptide)
peptide: YAG[pS][pT]DEN[pT]DSEEHQ-NH2
modifications: N-terminus assumed
SMILES: C[C@H](NC(=O)[C@@H](N)Cc1ccc(O)cc1)C(=O)NCC(=O)N[C@@H](COP(=O)(O)O)C(=O)N[C@H](C(=O)N[C@@H](CC(=O)O)C(=O)N[C@@H](CCC(=O)O)C(=O)N[C@@H](CC(N)=O)C(=O)N[C@H](C(=O)N[C@@H](CC(=O)O)C(=O)N[C@@H](CO)C(=O)N[C@@H](CCC(=O)O)C(=O)N[C@@H](CCC(=O)O)C(=O)N[C@@H](Cc1c[nH]cn1)C(=O)N[C@@H](CCC(N)=O)C(N)=O)[C@@H](C)OP(=O)(O)O)[C@@H](C)OP(=O)(O)O
notes: XRCC1 residues 515-529; also called YAGpSpTDENpTDSEEHQ; tri-phosphorylated XRCC1 peptide; source: synthetic peptide (Dr. W. Mawby, University of Bristol), purified by HPLC
fold weaker binding than the triphosphorylated XRCC4 peptide [1]: 26 fold
stoichiometry N [1]: ~2 APLF FHA domains per peptide

Source: PMC4655838, “Versatility in phospho-dependent molecular recognition of the XRCC1 and XRCC4 DNA-damage scaffolds by aprataxin-family FHA domains” (DNA Repair, 2015)
